Biological target: UCART19 CAR (anti-CD19 chimeric antigen receptor with a 4G7-derived scFv, on UCART19 cells)
Assay: flow cytometry blocking assay: fresh UCART19 cells pre-incubated with unconjugated antibody, then stained with labelled soluble CD19-hFc; ligand: m14

UCART19 CAR (anti-CD19 chimeric antigen receptor with a 4G7-derived scFv, on UCART19 cells), sequence (chain, as listed by the source mutant): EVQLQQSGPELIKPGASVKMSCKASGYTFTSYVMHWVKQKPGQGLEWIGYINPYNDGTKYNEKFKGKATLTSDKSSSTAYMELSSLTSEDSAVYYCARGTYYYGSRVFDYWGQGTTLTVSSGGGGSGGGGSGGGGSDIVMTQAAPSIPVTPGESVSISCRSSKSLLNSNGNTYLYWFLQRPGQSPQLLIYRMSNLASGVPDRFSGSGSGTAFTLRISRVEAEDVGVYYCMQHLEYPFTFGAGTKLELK

Question: With Isotype Control (antibody) as the substance, how does the CAR+ (% cells stained by APC-sCD19) at 0.2 µg/mL antibody read?
Answer: Its CAR+ (% cells stained by APC-sCD19) at 0.2 µg/mL antibody is 52.4%.

Question: And the CAR+ (% cells stained by APC-sCD19) at 0.39 µg/mL antibody?
Answer: The CAR+ (% cells stained by APC-sCD19) at 0.39 µg/mL antibody was 52.9%.

Question: And the CAR+ (% cells stained by APC-sCD19) at 0.78 µg/mL antibody?
Answer: Its CAR+ (% cells stained by APC-sCD19) at 0.78 µg/mL antibody is 53.4%.

Question: And the CAR+ (% cells stained by APC-sCD19) at 1.56 µg/mL antibody?
Answer: Its CAR+ (% cells stained by APC-sCD19) at 1.56 µg/mL antibody is 52.7%.

Question: What about the CAR+ (% cells stained by APC-sCD19) at 3.125 µg/mL antibody of the same substance?
Answer: The CAR+ (% cells stained by APC-sCD19) at 3.125 µg/mL antibody was 52.9%.

Question: And the CAR+ (% cells stained by APC-sCD19) at 6.25 µg/mL antibody?
Answer: The CAR+ (% cells stained by APC-sCD19) at 6.25 µg/mL antibody was 52.6%.

Question: What about the CAR+ (% cells stained by APC-sCD19) at 12.5 µg/mL antibody of the same substance?
Answer: The CAR+ (% cells stained by APC-sCD19) at 12.5 µg/mL antibody was 52.3%.

Question: What about the CAR+ (% cells stained by APC-sCD19) at 25 µg/mL antibody of the same substance?
Answer: The CAR+ (% cells stained by APC-sCD19) at 25 µg/mL antibody was 52%.

Question: What about the CAR+ (% cells stained by APC-sCD19) at 50 µg/mL antibody of the same substance?
Answer: The CAR+ (% cells stained by APC-sCD19) at 50 µg/mL antibody was 53.3%.

Question: What about the CAR+ (% cells stained by APC-sCD19) at 100 µg/mL antibody of the same substance?
Answer: The CAR+ (% cells stained by APC-sCD19) at 100 µg/mL antibody was 54.8%.
